Measurements published in US20260297200 (published 2026).

Columns and labels:
CD3 on Jurkat = CD3 on Jurkat (human, UniProt P07766); test: FACS, Jurkat
human EGFR on cells [1] = molecular target: T1, human EGFR on cells (human, UniProt P00533); test: FACS, FaDu
human EGFR on cells [2] = molecular target: T1, human EGFR on cells; test: FACS, SW620
human EGFR on cells [3] = molecular target: T1, human EGFR on cells; test: FACS, HCT-116
EGFR-His (human ECD) = EGFR-His (human ECD) (human); test: BLI
human EGFR on cells [4] = molecular target: T1, human EGFR on cells; test: FACS, FaDu; remark: listed apart in the source
human EGFR on cells [5] = molecular target: T1, human EGFR on cells; test: FACS, LIM1215
EGFR-moIgG2a-Fc = EGFR-moIgG2a-Fc (human); test: ELISA

Chain of CD3 on Jurkat (P07766 23-207): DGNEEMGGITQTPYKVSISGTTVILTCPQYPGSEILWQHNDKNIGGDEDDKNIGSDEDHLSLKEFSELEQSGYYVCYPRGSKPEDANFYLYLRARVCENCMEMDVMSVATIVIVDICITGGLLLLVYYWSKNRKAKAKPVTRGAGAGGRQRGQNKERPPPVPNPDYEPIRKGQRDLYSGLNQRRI

B1: scDb-scFv YU250-H10xhuU3 CD3 arm (antibody, V domains shown)
VH: QVQLVQSGAEVKKPGSSVKVSCKASGGTFSGYTMNWVRQAPGQGLEWMGLINPYKGVSTYNGKFKDRVTITADKSTSTAYMELSSLRSEDTAVYYCARSGYYGDSDWYFDVWGQGTLVTVSS
VL: DIQMTQSPSSLSASVGDRVTITCRASQDIRNYLNWYQQKPGKAPKLLIYYTSRLHSGVPSRFSGSGSGTDFTFTISSLQPEDIATYYCQQGNTLPWTFGQGTKLEIKR
EC50 (CD3 on Jurkat): > 10 nM

B2: Fab-eIg YU250-H10xhuU3 CD3 arm (antibody, V domains shown)
VH: QVQLVQSGAEVKKPGSSVKVSCKASGGTFSGYTMNWVRQAPGQGLEWMGLINPYKGVSTYNGKFKDRVTITADKSTSTAYMELSSLRSEDTAVYYCARSGYYGDSDWYFDVWGQGTLVTVSS
VL: DIQMTQSPSSLSASVGDRVTITCRASQDIRNYLNWYQQKPGKAPKLLIYYTSRLHSGVPSRFSGSGSGTDFTFTISSLQPEDIATYYCQQGNTLPWTFGQGTKLEIKR
EC50 (CD3 on Jurkat): > 10 nM

B3: scDb YU250-H10xhuU3 CD3 arm (antibody, V domains shown)
VH: QVQLVQSGAEVKKPGSSVKVSCKASGGTFSGYTMNWVRQAPGQGLEWMGLINPYKGVSTYNGKFKDRVTITADKSTSTAYMELSSLRSEDTAVYYCARSGYYGDSDWYFDVWGQGTLVTVSS
VL: DIQMTQSPSSLSASVGDRVTITCRASQDIRNYLNWYQQKPGKAPKLLIYYTSRLHSGVPSRFSGSGSGTDFTFTISSLQPEDIATYYCQQGNTLPWTFGQGTKLEIKR
EC50 (CD3 on Jurkat): 7.56 nM

B4: eIg YU250-H10xhuU3 CD3 arm (antibody, V domains shown)
VH: QVQLVQSGAEVKKPGSSVKVSCKASGGTFSGYTMNWVRQAPGQGLEWMGLINPYKGVSTYNGKFKDRVTITADKSTSTAYMELSSLRSEDTAVYYCARSGYYGDSDWYFDVWGQGTLVTVSS
VL: DIQMTQSPSSLSASVGDRVTITCRASQDIRNYLNWYQQKPGKAPKLLIYYTSRLHSGVPSRFSGSGSGTDFTFTISSLQPEDIATYYCQQGNTLPWTFGQGTKLEIKR
EC50 (CD3 on Jurkat): > 10 nM

B5: eIg MKU011-A7xhuU3 EGFR arm (antibody, V domains shown)
VH: QVQLVQSGGGVVQPGGSLRLSCAASGFTFSSYGMHWVRQAPGKGLEWVAFIRYDGSNKYYADSVKGRFTISRDNSKNTLYLQMNSLRAEDTAVYYCAKDGNSGYDSMDYWGQGTLVTVSS
VL: QPVLTQSPSASGTPGQRVTISCSGVSSNIGRNYVYWYQQFPGTAPKLLIYATHQRPSGVPDRFSGSKSGTSASLAISGLRSEDEANYYCAAWDDGVTGWVFGGGTKLTVLG
EC50 (human EGFR on cells [1]): 3.28 nM
EC50 (human EGFR on cells [2]): 0.74 nM
EC50 (human EGFR on cells [3]): 4.28 nM

B6: YU250-H10 Fab-His (antibody)
chain 1: QVQLVQSGGGVVQPGGSLRLSCAASGFTFSSYGMHWVRQAPGKGLEWVAFIRYDGSNKYYADSVKGRFTISRDNSKNTLYLQMNSLRAEDTAVYYCAKDGNSGYDSMDYWGQGTLVTVSS
chain 2: QSVLTQPPSVSGAPGQRVTISCSGGSSNVGRNGVNWFQHLPEKAPKLLIYYDAFLSSGVSDRFSGSKSGTSASLAIRGLQSDDEADYYCAAWDDSLYSWVFGGGTNLTVL
Kd (EGFR-His (human ECD)): 4.17 nM

B7: YU250-A02 Fab-His (antibody, V domains shown)
VH: QVQLQESGGGVVQPGGSLRLSCAASGFTFSSYGMHWVRQAPGKGLEWVAFIRYDGSNKYYADSVKGRFTISRDNSKNTLYLQMNSLRAEDTAVYYCAKDGNSGYDSMDYWGQGTLVTVSS
VL: QSVLTQPPSVSGAPGQRVTISCSGGSSNVGRNGVNWFQHLPEKAPKLLIYYDAFLSSGVSDRFSGSKSGTSASLAIRGLQSEDEADYYCASWDDSLTGWVFGGGTKLTVL
Kd (EGFR-His (human ECD)): 12.9 nM

B8: MKU011-A7 Fab-His (antibody, V domains shown)
VH: QVQLVQSGGGVVQPGGSLRLSCAASGFTFSSYGMHWVRQAPGKGLEWVAFIRYDGSNKYYADSVKGRFTISRDNSKNTLYLQMNSLRAEDTAVYYCAKDGNSGYDSMDYWGQGTLVTVSS
VL: QPVLTQSPSASGTPGQRVTISCSGVSSNIGRNYVYWYQQFPGTAPKLLIYATHQRPSGVPDRFSGSKSGTSASLAISGLRSEDEANYYCAAWDDGVTGWVFGGGTKLTVL
Kd (EGFR-His (human ECD)): 55.8 nM

B9: scDb YU250-H10xhuU3 EGFR arm (antibody)
chain 1: QVQLVQSGGGVVQPGGSLRLSCAASGFTFSSYGMHWVRQAPGKGLEWVAFIRYDGSNKYYADSVKGRFTISRDNSKNTLYLQMNSLRAEDTAVYYCAKDGNSGYDSMDYWGQGTLVTVSS
chain 2: QSVLTQPPSVSGAPGQRVTISCSGGSSNVGRNGVNWFQHLPEKAPKLLIYYDAFLSSGVSDRFSGSKSGTSASLAIRGLQSDDEADYYCAAWDDSLYSWVFGGGTNLTVL
EC50 (human EGFR on cells [4]): 1.68 nM
EC50 (human EGFR on cells [5]): 1.02 nM

B10: scDb-scFv YU250-H10xhuU3 EGFR arm (antibody)
chain 1: QVQLVQSGGGVVQPGGSLRLSCAASGFTFSSYGMHWVRQAPGKGLEWVAFIRYDGSNKYYADSVKGRFTISRDNSKNTLYLQMNSLRAEDTAVYYCAKDGNSGYDSMDYWGQGTLVTVSS
chain 2: QSVLTQPPSVSGAPGQRVTISCSGGSSNVGRNGVNWFQHLPEKAPKLLIYYDAFLSSGVSDRFSGSKSGTSASLAIRGLQSDDEADYYCAAWDDSLYSWVFGGGTNLTVL
EC50 (human EGFR on cells [4]): 0.74 nM
EC50 (human EGFR on cells [5]): 0.31 nM

B11: Fab-eIg MKU011-A7xhuU3 EGFR arm (antibody, V domains shown)
VH: QVQLVQSGGGVVQPGGSLRLSCAASGFTFSSYGMHWVRQAPGKGLEWVAFIRYDGSNKYYADSVKGRFTISRDNSKNTLYLQMNSLRAEDTAVYYCAKDGNSGYDSMDYWGQGTLVTVSS
VL: QPVLTQSPSASGTPGQRVTISCSGVSSNIGRNYVYWYQQFPGTAPKLLIYATHQRPSGVPDRFSGSKSGTSASLAISGLRSEDEANYYCAAWDDGVTGWVFGGGTKLTVL
EC50 (human EGFR on cells [1]): 0.4 nM
EC50 (human EGFR on cells [2]): 0.03 nM
EC50 (human EGFR on cells [3]): 0.16 nM

B12: Fab-eIg 2+2 H10x3-43 EGFR arm (antibody)
chain 1: QVQLVQSGGGVVQPGGSLRLSCAASGFTFSSYGMHWVRQAPGKGLEWVAFIRYDGSNKYYADSVKGRFTISRDNSKNTLYLQMNSLRAEDTAVYYCAKDGNSGYDSMDYWGQGTLVTVSS
chain 2: QSVLTQPPSVSGAPGQRVTISCSGGSSNVGRNGVNWFQHLPEKAPKLLIYYDAFLSSGVSDRFSGSKSGTSASLAIRGLQSDDEADYYCAAWDDSLYSWVFGGGTNLTVL
EC50 (EGFR-moIgG2a-Fc): 0.5 nM

B13: Fab-eIg YU250-H10xhuU3 EGFR arm (antibody)
chain 1: QVQLVQSGGGVVQPGGSLRLSCAASGFTFSSYGMHWVRQAPGKGLEWVAFIRYDGSNKYYADSVKGRFTISRDNSKNTLYLQMNSLRAEDTAVYYCAKDGNSGYDSMDYWGQGTLVTVSS
chain 2: QSVLTQPPSVSGAPGQRVTISCSGGSSNVGRNGVNWFQHLPEKAPKLLIYYDAFLSSGVSDRFSGSKSGTSASLAIRGLQSDDEADYYCAAWDDSLYSWVFGGGTNLTVL
EC50 (human EGFR on cells [4]): 0.76 nM
EC50 (human EGFR on cells [1]): 0.32 nM
EC50 (human EGFR on cells [2]): 0.03 nM
EC50 (human EGFR on cells [3]): 0.13 nM

B14: Db3-43xH10-Ig EGFR arm (antibody)
chain 1: QVQLVQSGGGVVQPGGSLRLSCAASGFTFSSYGMHWVRQAPGKGLEWVAFIRYDGSNKYYADSVKGRFTISRDNSKNTLYLQMNSLRAEDTAVYYCAKDGNSGYDSMDYWGQGTLVTVSS
chain 2: QSVLTQPPSVSGAPGQRVTISCSGGSSNVGRNGVNWFQHLPEKAPKLLIYYDAFLSSGVSDRFSGSKSGTSASLAIRGLQSDDEADYYCAAWDDSLYSWVFGGGTNLTVL
EC50 (EGFR-moIgG2a-Fc): 0.9 nM

B15: eIg YU250-H10xhuU3 EGFR arm (antibody)
chain 1: not shown
chain 2: QSVLTQPPSVSGAPGQRVTISCSGGSSNVGRNGVNWFQHLPEKAPKLLIYYDAFLSSGVSDRFSGSKSGTSASLAIRGLQSDDEADYYCAAWDDSLYSWVFGGGTNLTVLGQPKAAPSVTLFPPSSEELQANKATLVCLISDFYPGAVTVAWKADSSPVKAGVETTTPSKQSNNKYAASSYLSLTPEQWKSHRSYSCQVTHEGSTVEKTVAPTECS
EC50 (human EGFR on cells [4]): 2.17 nM
EC50 (human EGFR on cells [2]): 0.21 nM
EC50 (human EGFR on cells [5]): 0.85 nM
EC50 (human EGFR on cells [3]): 0.46 nM

B16: eIg 1+1 H10x5D5 EGFR arm (antibody)
chain 1: not shown
chain 2: QSVLTQPPSVSGAPGQRVTISCSGGSSNVGRNGVNWFQHLPEKAPKLLIYYDAFLSSGVSDRFSGSKSGTSASLAIRGLQSDDEADYYCAAWDDSLYSWVFGGGTNLTVLGQPKAAPSVTLFPPSSEELQANKATLVCLISDFYPGAVTVAWKADSSPVKAGVETTTPSKQSNNKYAASSYLSLTPEQWKSHRSYSCQVTHEGSTVEKTVAPTECS
EC50 (EGFR-moIgG2a-Fc): 1.1 nM

B17: Fab/scFv-Fc H10x3-43 EGFR arm (antibody)
chain 1: not shown
chain 2: QSVLTQPPSVSGAPGQRVTISCSGGSSNVGRNGVNWFQHLPEKAPKLLIYYDAFLSSGVSDRFSGSKSGTSASLAIRGLQSDDEADYYCAAWDDSLYSWVFGGGTNLTVLGQPKAAPSVTLFPPSSEELQANKATLVCLISDFYPGAVTVAWKADSSPVKAGVETTTPSKQSNNKYAASSYLSLTPEQWKSHRSYSCQVTHEGSTVEKTVAPTECS
EC50 (EGFR-moIgG2a-Fc): 0.3 nM

B18: eIg 1+1 H10x3-43 EGFR arm (antibody)
chain 1: not shown
chain 2: QSVLTQPPSVSGAPGQRVTISCSGGSSNVGRNGVNWFQHLPEKAPKLLIYYDAFLSSGVSDRFSGSKSGTSASLAIRGLQSDDEADYYCAAWDDSLYSWVFGGGTNLTVLGQPKAAPSVTLFPPSSEELQANKATLVCLISDFYPGAVTVAWKADSSPVKAGVETTTPSKQSNNKYAASSYLSLTPEQWKSHRSYSCQVTHEGSTVEKTVAPTECS
EC50 (EGFR-moIgG2a-Fc): 0.5 nM

B19: Db3-43x3-43/FabH10-Fckih EGFR arm (antibody)
chain 1: not shown
chain 2: QSVLTQPPSVSGAPGQRVTISCSGGSSNVGRNGVNWFQHLPEKAPKLLIYYDAFLSSGVSDRFSGSKSGTSASLAIRGLQSDDEADYYCAAWDDSLYSWVFGGGTNLTVLGQPKAAPSVTLFPPSSEELQANKATLVCLISDFYPGAVTVAWKADSSPVKAGVETTTPSKQSNNKYAASSYLSLTPEQWKSHRSYSCQVTHEGSTVEKTVAPTECS
EC50 (EGFR-moIgG2a-Fc): 0.1 nM

B20: eIg 1+1 H10x4D5 EGFR arm (antibody)
chain 1: not shown
chain 2: QSVLTQPPSVSGAPGQRVTISCSGGSSNVGRNGVNWFQHLPEKAPKLLIYYDAFLSSGVSDRFSGSKSGTSASLAIRGLQSDDEADYYCAAWDDSLYSWVFGGGTNLTVLGQPKAAPSVTLFPPSSEELQANKATLVCLISDFYPGAVTVAWKADSSPVKAGVETTTPSKQSNNKYAASSYLSLTPEQWKSHRSYSCQVTHEGSTVEKTVAPTECS
EC50 (EGFR-moIgG2a-Fc): 6.2 nM
